Reference: patent US20220000998A1 (STRIKE PHARMA, published 2022)

Molecular target: UU-30
Experiment: cell-based or functional assay

Row | Binder | t1/2 (min) of UU-30 in mouse plasma (LC-MS/MS) [min]
1 | X-SM083-bi-12 (bispecific antibody) heavy: EVQLLESGGGLVQPGGSLRLSCAASGFTFSSYAMSWVRQAPGKGLEWVSGIGGSSSYTSYADSVKGRFTISRDNSKNTLYLQMNSLRAEDTAVYYCARYYSYHMDYWGQGTLVTVSSASTKGPSVFPLAPSSRSTSESTAALGCLVKDYFPEPVTVSWNSGALTSGVHTFPAVLQSSGLYSLSSVVTVPSSNFGTQTYTCNVDHKPSNTKVDKTVERKCCVECPPCPAPPVAGPSVFLFPPKPKDTLMISRTPEVTCVVVDVSHEDPEVQFNWYVDGVEVHNAKTKPREEQFNSTFRVVSVLTVVHQDWLNGKEYKCKVSNKGLPAPIEKTISKTKGQPREPQVYTLPPSREEMTKNQVSLTCLVKGFYPSDIAVEWESNGQPENNYKTTPPMLDSDGSFFLYSKLTVDKSRWQQGNVFSCSVMHEALHNHYTQKSLSLSPGKGGGGSGGGGSQVQLQQPGAELVMPGASVNLSCKASGYTFTDYWMHWVKQRPGQGLEWIGEIDPSDNFSNLNQNFRGKATLTVDKSSRTAFLQLSSLTSEDSAVYYCAVEDYWGQGTTLTVSSGGGGSGGGGSGGGGSGGGGSDIVMTQATPSVLVTPGEAVSISCRASRSLLHSNGITYLYWFLQRPGQSPQVLIYRMSNLVSGVPDRFSGSGSGTAFTLRISRVEAEDVGVYYCMQHLEFPYTFGGGTKLEIK light: DIQMTQSPSSLSASVGDHVTITCRASQSISSYLNWYQQKPGKAPKLLIYAASSLQSGVPSRFSGSGSGTDFTLTISSLQPEDFATYYCQQYGSAPPTFGQGTKLEIK | 424
2 | X-SM083-bi-9 (bispecific antibody) heavy: not shown light: DIQMTQSPSSLSASVGDHVTITCRASQSISSYLNWYQQKPGKAPKLLIYAASSLQSGVPSRFSGSGSGTDFTLTISSLQPEDFATYYCQQYGSAPPTFGQGTKLEIK | 1340
